Measured values: a protein production outcome set (Wang et al. 2014)

Assay: label from the status in PepcDB records

For “MKKILGTLLAVLFSFMAINDSAAQNTVLRFNKDGKFKIVQFTDVHFKYGNPASDVALERIGEVLDAEHPDLVIFTGDVVYSSPADKGMLQVLGQVERRHLPFVVTFGNHDNEQGKTRAELYDLIRGVAGNLLPDRGASPSPDYILTMKSSADASKDAALLYCMDSHSYSSLKDVDGYAWLTFGQVSWYRAQSAAYTARNGGKPYPALAFFHIPLPEYNEAAANENAILRGTRMEKACAPQLNTGMFAAMKEAGDVMGVFVGHDHDNDYAVMWKNILLAYGRFTGGNTEYNHLPNGARVIVLNEGTRTFETWIRQKGGVVDSTSYPSDYVKDDWRKR”, the protein production was “failed”.

In the case of “MAALLGIVSPVTFTGKHPVNSRSRRRTVVKCSNERRILFNRIAPVYDNLNDLLSLGQHRIWKNMAVSWSGAKKGDYVLDLCCGSGDLAFLLSEKVGSTGKVMGLDFSSEQLAVAATRQSLKARSCYKCIEWIEGDAIDLPFDDCEFDAVTMGYGLRNVVDRLRAMKEMYRVLKPGSRVSILDFNKSNQSVTTFMQGWMIDNVVVPVATVYDLAKEYEYLKYSINGYLTGEELETLALEAGFSSACHYEISGGFMGNLVAMR”, the protein production is reported as “failed”.

With “MSSVLSFALAAWRRLRGYRDSLEVAGGLLAGNLFDTINMVVISMFSNYLVGQRGLLALYPQLSALTGGLLLSLSSRAISNHVLGGAGPEVYLTGLAVSAASGIFLTTVFSTATSIALGLEPVMMVPAALITLLGVLLVLTLLTWIIIVMLLRLGVSPDNVMPAILTSIIDMAVLILAIVAFSMVSRMDEGIYLVAVVTFSLALAFSAAAYDFRLTIDTTFSNFALQVVEMIAGVLLSATAPVLAATGLLPVLPPLNKLAGSVAGSMASAATTSVSLYGHYLDLPSMISTLFKITVGAIPSALYIGVIGYVLASVGEGSVGPQIVLASLLVSIVLSILGSLIAWLLVVVSIRAGLDPDAIAMPLATSLVDLLGVVSLSVVAWILLST” the protein production was “failed”.

For “LLHRTFMADAGWSDLKAFEVILRHIPHDAALHAANSTPVRYLQLFEHAHYAGGEWSNRGTNGIEGATSTAMGFSEVYSGTTLLITGDLSFMYDSNALWMPYVNGRIRVIVMRNGGGGIFRFIPGPDSLKELETCFETPLEVPVREMAGAYGWRYMKAVSAEELETVLPSFFASGDRAVLLEVETPRFENAPVLKSYFTYISGESYPVNR”, the protein production was “failed”.

In the case of “MTNWLIAYQGEPGAYSEIAALRFGEPLPCESFDDVFSAVTEQKADYAVIPIENSLGGSIHQNYDLLLRRPVVILAETFVKVEHCLLGLPGASVETATKAMSHPQALVQCHNFFATHPQIRAEAAYDTAGSAKMVAESRDKSALAIASKRAGELYGLDILKENLADEEWNITRFFCIAHENN”, the protein production is reported as “not failed”.

For “ARNAEAEGRLVRECRELLERHAFEELTVPDIAECLGVSVRTLQTALRAETGATPSELLRSIRLDRAREMLLEANPREQSVTAVAEQCGFTHQGRFSALYVKAFGELPSESLRR”, the protein production was “failed”.

In the case of “IIAWLGPQLRELTPVDTNKDPKTRLQEFLQSRGCDLPRYEVVDIQGEPHCRTFFVDCEVALLSDKTHGHGGSRRIAEQVAAAAALVALGVENGHD”, the protein production is reported as “failed”.

For “MIPPYREHPLREVLINELHARPSETIEAPVRLSHLAVLTGEITDPSLDHLGLLCARMGETVPAKGATRFNANLGGLGLQFERHTEFCTYTFQRRGRTGDLPFDQPALDMVPPDWLATLPGQVLSAVHLVVEPKDTPEYSIEELSIRHFAGNPVVGSAVGGGAAFAYSDLRLHDDRCLRMLIRDVDLNPRHAGRLVQRLLELNTYRALALLALPMARESSPGLRRIDMVLAHVAARMADPNGVDSDAELLSELSNLTAEVESLAAANSYRIAATRAYHALVQRRLEELREVRLDGVVTFGAFMDRRLTPAMATVDSVSERIESLSERGARVASLLRARVEVDLQAQNKRLLESMNRRARIQLRLQEAVEGLSVVAISYYLVGLVGYMAKGVSGAGVEVKESVVTAIAVPVIVASVWLVLRRAKRAMLNRAD”, the protein production was “failed”.

With “MAQKTLLIITDGIGYRKDSDHNAFFHAKKPTYDLMFKTLPYSLIDTHGLSVGLPKGQMGNSEVGHMCIGAGRVLYQDLVKISLSLQNDELKNNPAFLNTIQKSPVVHLMGLMSDGGVHSHIEHFIALALECEKSHKKVCLHLITDGRDVAPKSALTYLKQMQNICNESIQIATISGRFYAMDRDKRFERIELAYHSLMGLNHTPLSPSEYIQSQYDKNITDEFIMPACFKNYCGMQDDESFIFINFRNDRAREIVSALGQKQFSGFKRQVFKKLHIATMTPYDNTFPYPVLFPKESVQNTLAEVVSQHNLTQSHIAETEKYAHVTFFINGGVETPFKNENRVLIQSPKVTTYDLKPEMSAKEVTLAVLEQMKLGTDLIIVNFANGDMVGHTGNFEASVKAVEAVDACLGEILSLAKKLDYAMLLTSDHGNCERMKDENQNPLTNHTAGSVYCFVLGDGVKSIKNGALNNIASSVLKLMGLKAPATMDEPLF” the protein production was “failed”.

With “MADQLYLENIDEFVTDQNKIVTYKWLSYTLGVHVNQAKQMLYDYVERKRKENSGAQLHVTYLVSGSLIQNGHSCHKVAVVREDKLEAVKSKLAVTASIHVYSIQKAMLKDSGPLFNTDYDILKSNLQNCSKFSAIQC” the protein production was “failed”.

For “NMTISDIQHAPDYALLSNDEQQLCIQLKILPKPYLVLKEVMFRELLKTGGNLSKSACRELLNIDPIKANRIYDFFQSQNWM”, the protein production was “not failed”.

In the case of “MGQQELAFGGGEFHSLWSCRFGAATLARRGCAFRNALAIMRGFPSALAGVRRTMHTLQQLRSGELAGATRLDLSCGLREFPREIFELADSLEVLNLSGNALDSLPDDLGRLHRLKVLFCSANDFDELPAAVGDCPALSMVGFKSNRIERVPAAALPPALRWLILTDNRIATLPEELGRRPLQKLMLAGNRLEALPESMAACEGLELLRIAANRFQRLPAWLATLPRLAWLAYAGNPLCRLPALADSGIAALDWSELSLDGLIGEGASGVIHRAGWHQPDGSTRTVALKLFKGEVTSDGTPASEMAACLAAGRHAQLIEVLGQLAGHPQGRDGLVLELLDDAYRNLAGPPSLESCTRDVYPPGLRFELATALRLAASLAALMAHLHGRGISHGDFYAHNILWREDGACLLGDFGAASFLPDDAVLAGALRRLEVRAFACLLEELLERSEAPPGQASLSAALVELQRRCALPRVSERPDFGEIQAILRDLAARSQAFPQVR”, the protein production is reported as “failed”.

With “MEAKLQVGVLGFGTVGSGVIHILEEHQEKISQVTGYHISVKKVLVRDLEKNRRYETKGFELTTNPSDVLDDPEIAVVVEVMGSITTAREYILQALKAGKHVVTANKDLIALHGDELVAVAQANNCDLFYEASVAGGIPILRTIVNSLAADKIQKVMGIVNGTTNFMLTKMTTEKKSYEEVLAEAQALGFAESDPTNDVDGIDAARKMVIMTRLAFGMNVNLDNVETSGIRGISPEDIEVAYQLGYKIKLVGTAEETNGTVNVNVGPVLLPKAHPLAGVNYENNAVFVTGAAVGETMFYGPGAGELPTATSVVSDLITVAKNSRLGTNGNAFNSYKHETKHTPKEQVFSKYYLRLTMDDKTGTFLKLTQIFAEAGVGFDKILQQPYDDFTATVVIVTHSTSQAQLEQAITRVKNEPEMQMLAKYSVVEG” the protein production was “not failed”.

In the case of “MLFAAEGGGFFSSSASGYSNGLALLLLGQKTEQKPIKVSSQWNHYHLVLEDSDTGFRLDSSKNWLSSACTSLICFGRKSERLESEGKKDEAPSVEDYNNCEVTNRFALKSSLKKRSFSDVVIGDDDVSRDGVVDHIDRRKVQWPDTCGIEIAEVREFEPRYGCFLL”, the protein production is reported as “failed”.

For “MDPSRLLRTERERKAVMPPFSPGPLPIDPVLPALLEALASHGRAVLIAPPGAGKTTRVPPALLGALWLGGQKVVMLEPRRLATRAAARRMAFEAGEAVGQRFGFRVRGESRSGPLTRVEVMTEGILTRRIQDDPELAGVGCVILDEFHERGLQGDLAFALLREIQGALRPDLRLLVMSATLDGAAIAALMDDAPVIESHGRAFPVTITHGERPAARDLGPAMARTILRALEDEPGSVLAFLPGEREIAAVAGALARALPADTVLRPLYGALPPAEQDAAISPCPPGQRKVVLATDIAETSLTIEGVRIVVDSGLRRSPRFDPQTGLSRLDTVRISQAGAEQRRGRAGRLEPGVCLRLWPEAEHRALPAQETPEILAADLAPLALELARWGARDAAALCWPTPPPPGPLAQARDLLTSLGALEPAGGLSAHGAAMAALPLHPRLAHMVLAAKADGADDGALACLLAALLAERDILRPGPGAARDRDLTTRLEILIGQGRRAPAGQILRQPTLGAVRDEAARLRQLAGIAASASPEPARCGRVLARAYPDRIAQARPGQPGRFLLSSGRGALIDVGDPLAAAAFLAVAEVDGAGSEARVFLAAPLDRADLEELFDEALRPCETVTWDPRAEAVVARVERRLGALVFESRDLPDRADPARTTPAVCAGIRRLGLGCLPWTRETDRLRARVAFLHRVHSADDWPDLSDDALLASLADWLGPWLDGITRRSAFARIDLMAALKALIGWRRLADLDRLAPAQMDVPSGVKVALDYEVPDGPVLAARVQQLFGLTRTPAVLDGGHPVLVHLLSPAGRPLQVTRDLAGFWKGSYAEVRKDMRGRYPKHPWPEDPTGAEATNRVKPRGQ”, the protein production was “failed”.

For “MSRRAPMFKPLPITLQRGALRLEPLVEADIPELVSLAEANREALQYMDGPTRPDWYRQSLAEQREGRALPLAVRLGVQLVGTTRFAEFLPALPACEIGWTWLDQAQHGSGLNRMIKYLMLKHAFDNLRMVRVQLSTAASNLRAQGAIDKLGAQREGVLRNHRRLAGGRLDDTFVYSITDHEWPQVKAALEASFTG”, the protein production was “not failed”.

With “INIEIAYAFPERYYLKSFQVDEGITVQTAITQSGILSQFPEIDLSTNKIGIFSRPIKLTDVLKEGDRIEIYRPLLADPKEIRRK” the protein production was “not failed”.

With “MNQNKITAGGLEFLVRFAAPTDRLKINDLMIDTARWLKESGSTQWSDILHGFDVHNIEQRIELGEVALFETEAGALAGAMIIRKTPSDWDTDLWEDLAIDKAYYLHRIMVSRAFSGISLSKQMIYFAEKLGIEMSVPFIRLDCIESNETLNQMYVRYGFQFSGKKNGFYLYQKELSQK” the protein production was “not failed”.

With “MNTSHVRVVTHMCGFLVWLYSLSMLPPMVVALFYKEKSLFVFFITFVIFFCIGGGAWYTTKKSGIQLRTRDGFIIIVMFWILFSVISAFPLWIDSELNLTFIDALFEGVSGITTTGATVIDDVSSLPRAYLYYRSQLNFIGGLGVIVLAVAVLPLLGIGGAKLYQSEMPGPFKDDKLTPRLADTSRTLWITYSLLGIACIVCYRLAGMPLFDAICHGISTVSLGGFSTHSESIGYFNNYLVELVAGSFSLLSAFNFTLWYIVISRKTIKPLIRDIELRFFLLIALGVIIVTSFQVWHIGMYDLHGSFIHSFFLASSMLTDNGLATQDYASWPTHTIVFLLLSSFFGGCIGSTCGGIKSLRFLILFKQSKHEINQLSHPRALLSVNVGGKIVTDRVMRSVWSFFFLYTLFTVFFILVLNGMGYDFLTSFATVAACINNMGLGFGATASSFGVLNDIAKCLMCIAMILGRLEIYPVIILFSGFFWRS” the protein production was “failed”.

In the case of “MHLKNNQTLANGATVTIYPTTTEPTNYVVYLHGGGMIYGTKSDLPEELKELFTSNGYTVLALDYLLAPNTKIDHILRTLTETFQLLNEEIIQNQSFGLCGRSAGGYLMLQLTKQLQTLNLTPQFLVNFYGYTDLEFIKEPRKLLKQAISAKEIAAIDQTKPVWDDPFLSRYLLYHYSIQQALLPHFYGLPENGDWSAYALSDETLKTFPPCFSTASSSDEEVPFRYSKKIGRTIPESTFKAVYYLEHDFLKQTKDPSVITLFEQLDSWLKER”, the protein production is reported as “not failed”.

In the case of “MASLDEKWEAVDNFKSVVVDRERDVVRVTKELYDLHSNREQLRGVTSSCNYRLTIPFAPHHFGSGKTTFARTYLELVQRFGETSLSTFASDPLKRTFLEKLKRASLLYADLKELKPTDPKERNLEWAVYYLLIKAACLQSGLPQPDPDECFKELKLRSDALVQKIRSILNIPSDQYLLVAFDEVGVLDESLDEFHFKRTHDGRVRPYNDFFGIISQLCKEPDLFFIVVGKSKGLSIKNYVSSVSKVILHFISLSPLDASSIVEFLEKSLLKTPTQVPVCNVLCSSSFSVNELADSLLECTGGVPGLLTRAVNMLLNYIIARKFVLNHLWNEY”, the protein production is reported as “failed”.
